Results as given in patent US20060134087A1, “ITI-D1 Kunitz domain mutants as hNE inhibitors” (Dyax Corp., published 2006).
Where a chain is given by its changes, count along the chain named.

Columns and labels:
[1] = biological target: T1, Human Neutrophil Elastase (human, UniProt P08246); experiment: display phage eluted from hNE beads, normalized to MA-EpiNE7 in a concurrent elution
[2] = biological target: T1, Human Neutrophil Elastase; experiment: display phage on hNE beads, extended pH fractionation
From the text: We characterized the binding properties to hNE-beads of MA-BITI and MA-BITI-E7 display phage using the extended pH fractionation procedure described in U.S. Pat. No. 5,223,409.

[3] = biological target: T1, Human Neutrophil Elastase; experiment: estimated for the free domain from display phage binding to and elution from hNE beads
[4] = biological target: T1, Human Neutrophil Elastase; experiment: pH elution of display phage from hNE beads, abbreviated protocol
From the text: (§1) Total pfu applied to the beads are in column two. The fractions of this input pfu recovered in each pH fraction of the abbreviated pH elution protocol (pH 7.0, pH 3.5, and pH 2.0) are in the next three columns. For data obtained using the extended pH elution protocol, the pH 3.5 listing represents the sum of the fractions of input recovered in the pH 6.0, pH 5.5, pH 5.0, pH 4.5, pH 4.0, and pH 3.5 elution samples. The pH 2.0 listing is the sum of the fractions of input obtained from the pH 3.0, pH 2.5, and pH 2.0 elution samples. The total fraction of input pfu obtained throughout the pH elution protocol is in the sixth column. The final column of the table lists the total fraction of input pfu recovered, normalized to the value obtained for MA-BITI-E7-141 phage.

[5] = biological target: T1, Human Neutrophil Elastase; experiment: pH elution of display phage from hNE beads, extended protocol
From the text: as §1

[6] = biological target: T1, Human Neutrophil Elastase; experiment: abbreviated fractionation of display phage on hNE beads
Method: To test if ITI-D1E7-display phage bind hNE beads, pH elution profiles were measured. Aliquots of EpiNE-7, MA-ITI-D1, and MA-ITI-D1E7 display phage were incubated with hNE beads for three hours at room temperature (RT). The beads were washed and phage were eluted as described in U.S. Pat. No. 5,223,409, except that only three pH elutions were performed.

B1: MA-BITI display phage (designed binder)
chain: RPDFCQLGYSAGPCMGMTSRYFYNGTSMACETFQYGGCMGNGNNFVTEKDCLQTCRGA
Normalized fraction of input (relative to recovered MA-EpiNE7) [1]: 0.018 ratio
SUM, fraction of input from all pH elution fractions [2]: 3.9e-05 fraction of input
SUM, total pfu from all pH elution fractions [2]: 800000 pfu
pfu eluted at pH 2.0 [2]: 7700 pfu
pfu eluted at pH 2.5 [2]: 22000 pfu
pfu eluted at pH 3.0 [2]: 22000 pfu
pfu eluted at pH 3.5 [2]: 86000 pfu
pfu eluted at pH 4.0 [2]: 31000 pfu
pfu eluted at pH 4.5 [2]: 44000 pfu
pfu eluted at pH 5.0 [2]: 96000 pfu
pfu eluted at pH 6.0 [2]: 250000 pfu
pfu eluted at pH 7.0 [2]: 240000 pfu
pfu/Input eluted at pH 2.0 [2]: 3.8e-07 fraction of input
pfu/Input eluted at pH 2.5 [2]: 1.1e-06 fraction of input
pfu/Input eluted at pH 3.0 [2]: 1.1e-06 fraction of input
pfu/Input eluted at pH 3.5 [2]: 4.3e-06 fraction of input
pfu/Input eluted at pH 4.0 [2]: 1.6e-06 fraction of input
pfu/Input eluted at pH 4.5 [2]: 2.2e-06 fraction of input
pfu/Input eluted at pH 5.0 [2]: 4.8e-06 fraction of input
pfu/Input eluted at pH 6.0 [2]: 1.2e-05 fraction of input
pfu/Input eluted at pH 7.0 [2]: 1.2e-05 fraction of input

B2: MUTQE display phage (designed binder)
chain: B1 chain with M15V, G16A, T18F, S19P, Q34V
Estimated KD [3]: < 10 pM
Fraction of Input recovered at pH2.0 [4]: 0.00053 fraction of input
Fraction of Input recovered at pH3.5 [4]: 0.0016 fraction of input
Fraction of Input recovered at pH7.0 [4]: 0.00012 fraction of input
Recovery Relative to BITI-E7-141 [4]: 0.85 ratio
Recovery, Total fraction of input [4]: 0.0022 fraction of input

B3: MA-BITI-E7-1222 display phage (designed binder)
chain: B1 chain with A11T, M15V, G16A, T18F, S19P
Fraction of Input recovered at pH2.0 [5]: 6.4e-05 fraction of input
Fraction of Input recovered at pH3.5 [5]: 0.0004 fraction of input
Fraction of Input recovered at pH7.0 [5]: 7.2e-05 fraction of input
Recovery Relative to BITI-E7-141 [5]: 0.21 ratio
Recovery, Total fraction of input [5]: 0.00054 fraction of input

B4: MUTT26A display phage (designed binder)
chain: B1 chain with M15V, G16A, T18F, S19P, T26A, E31Q, Q34V
Estimated KD [3]: < 10 pM
Fraction of Input recovered at pH2.0 [5]: 0.00033 fraction of input
Fraction of Input recovered at pH3.5 [5]: 0.0019 fraction of input
Fraction of Input recovered at pH7.0 [5]: 0.00025 fraction of input
Recovery Relative to BITI-E7-141 [5]: 0.96 ratio
Recovery, Total fraction of input [5]: 0.0025 fraction of input

B5: MA-BITI-E7 display phage (designed binder)
chain: B1 chain with M15V, G16A, T18F, S19P
Normalized fraction of input (relative to recovered MA-EpiNE7) [1]: 0.13 ratio
SUM, fraction of input from all pH elution fractions [2]: 0.00029 fraction of input
SUM, total pfu from all pH elution fractions [2]: 1.8e+06 pfu
pfu eluted at pH 2.0 [2]: 8700 pfu
pfu eluted at pH 2.5 [2]: 23000 pfu
pfu eluted at pH 3.0 [2]: 89000 pfu
pfu eluted at pH 3.5 [2]: 90000 pfu
pfu eluted at pH 4.0 [2]: 240000 pfu
pfu eluted at pH 4.5 [2]: 380000 pfu
pfu eluted at pH 5.0 [2]: 370000 pfu
pfu eluted at pH 6.0 [2]: 280000 pfu
pfu eluted at pH 7.0 [2]: 280000 pfu
pfu/Input eluted at pH 2.0 [2]: 1.4e-06 fraction of input
pfu/Input eluted at pH 2.5 [2]: 3.8e-06 fraction of input
pfu/Input eluted at pH 3.0 [2]: 1.5e-05 fraction of input
pfu/Input eluted at pH 3.5 [2]: 1.5e-05 fraction of input
pfu/Input eluted at pH 4.0 [2]: 4e-05 fraction of input
pfu/Input eluted at pH 4.5 [2]: 6.3e-05 fraction of input
pfu/Input eluted at pH 5.0 [2]: 6.2e-05 fraction of input
pfu/Input eluted at pH 6.0 [2]: 4.7e-05 fraction of input
pfu/Input eluted at pH 7.0 [2]: 4.7e-05 fraction of input

B6: MUTP1 display phage (designed binder)
chain: B1 chain with M15I, T18F
Fraction of Input recovered at pH2.0 [4]: 0.00012 fraction of input
Fraction of Input recovered at pH3.5 [4]: 0.00092 fraction of input
Fraction of Input recovered at pH7.0 [4]: 0.00018 fraction of input
Recovery Relative to BITI-E7-141 [4]: 0.46 ratio
Recovery, Total fraction of input [4]: 0.0012 fraction of input

B7: MUT1619 display phage (designed binder)
chain: B1 chain with M15V, T18F, E31Q, Q34V
Estimated KD [3]: < 10 pM
Fraction of Input recovered at pH2.0 [5]: 8.4e-05 fraction of input
Fraction of Input recovered at pH3.5 [5]: 0.00099 fraction of input
Fraction of Input recovered at pH7.0 [5]: 8.2e-05 fraction of input
Recovery Relative to BITI-E7-141 [5]: 0.46 ratio
Recovery, Total fraction of input [5]: 0.0012 fraction of input

B8: MA-ITI-D1 display phage (other)
chain: KEDSCQLGYSAGPCMGMTSRYFYNGTSMACETFQYGGCMGNGNNFVTEKDCLQTCRTVGA
Normalized fraction of input (relative to recovered MA-EpiNE7) [1]: 0.0067 ratio
SUM, total fraction of input from all pH elution fractions [6]: 1.4e-05 fraction of input
fraction of input eluted at pH 2.0 [6]: 1e-06 fraction of input
fraction of input eluted at pH 3.5 [6]: 3e-06 fraction of input
fraction of input eluted at pH 7.0 [6]: 1e-05 fraction of input
fraction of input in Wash [6]: 1e-05 fraction of input
